Test results reported in patent publication US6512097.
Read-outs that look alike come from different tables or passages of the source.

Tests used:
Assay in all cases: SPR BIAcore
[1] = biological target: T1, c-erbB-2 ECD with a Ser-Gly-His6 C-terminal fusion (UniProt P04626 23-652)
T1 construct: extracellular domain; Expressed from CHO cells, IMAC purified; coupled to a CM5 chip, coated on plates, or biotinylated with NHS-LC-biotin; also called c-erbB-2 extracellular domain; biotinylated c-erbB-2 ECD

[2] = biological target: T1, c-erbB-2 ECD with a Ser-Gly-His6 …; remark: listed apart in the source
[3] = biological target: T1, c-erbB-2 ECD with a Ser-Gly-His6 …; remark: listed apart in the source
Protocol: (§1) All assays were performed in triplicate. Briefly, […] of radioiodinated sFv was added to 5×10^6 SK-OV cells in the presence of increasing concentrations of unlabeled sFv from the same preparation. After a 30 minute incubation at 20° C., the samples were washed with PBS at 4° C. and centrifuged at 500 g. The amount of labeled sFv bound to the cells was determined by counting the pellets in a gamma counter and the K_a, and K_d were calculated using the EBDA program (V 2.0, G. A. McPherson, 1983). The K_d of all the other isolated sFv were determined using surface plasmon resonance in a BIAcore (Pharmacia). In a BIAcore flow cell, approximately 1400 resonance units (RU) of c-erbB-2 ECD (25 μg/ml in 10 mM sodium acetate, pH 4.5) was coupled to a CM5 sensor chip (Johnsson et al. (1991), supra). Association and dissociation-rates were measured under continuous flow of […] using a concentration range from 50 to 800 nM. Rate constant $kon$ was determined from a plot of (1(dR/dt))/t vs concentration (Karlsson et al. (1991), supra). Rate constant $Hoff$ was determined from the dissociation part of the sensorgram at the highest concentration of sFv analyzed.
Dashes indicate sequence identity. Mutations arising from PCR error and located outside V_H CDR3 are listed under the heading other mutations. F = frequency of isolated scFv. *$koff$ determined from unpurified scFv samples. Underline indicates mutated residue.

[4] = biological target: T1, c-erbB-2 ECD with a Ser-Gly-His6 …; remark: listed apart in the source
[5] = biological target: T1, c-erbB-2 ECD with a Ser-Gly-His6 …; remark: listed apart in the source
Protocol: as §1

| Binder | Kd [1] [nM] | koff [1] [s⁻¹] | Kd [3] [nM] | koff [3] [s⁻¹] | Kd [4] [nM] | koff [4] [s⁻¹] | further results |
| --- | --- | --- | --- | --- | --- | --- | --- |
| C6ML3-9 (scFv, template (wt) of the VH CDR3 libraries; also called C6ML3-9 (wt); C6ML-9) scFv: QVQLLQSGAELKKPGESLKISCKGSGYSFTSYWIAWVRQMPGKGLEYMGLIYPGDSDTKYSPSFQGQVTISVDKSVSTAYLQWSSLKPSDSAVYFCARHDVGYCSSSNCAKWPEYFQHWGQGTLVTVSSGGGGSGGGGSGGGGSQSVLTQPPSVSAAPGQKVTISCSGSSSNIGNNYVSWYQQLPGTAPKLLIYGHTNRPAGVPDRFSGSKSGTSASLAISGFRSEDEADYYCASWDYTLSGWVFGGGTKLTVLG | 1 | 0.00019 | 1 | 0.00076 | 1 | 0.00092 | t1/2 calculated from koff [2]: 0.217 h |
| C6MH3-C4 (scFv, C6ML3-9 sFv, VH CDR3 library C mutant; also called mutant sFv K100gV) scFv: QVQLLQSGAELKKPGESLKISCKGSGYSFTSYWIAWVRQMPGKGLEYMGLIYPGDSDTKYSPSFQGQVTISVDKSVSTAYLQWSSLKPSDSAVYFCARHDVGYCSSSNCAVWPEYFQHWGQGTLVTVSSGGGGSGGGGSGGGGSQSVLTQPPSVSAAPGQKVTISCSGSSSNIGNNYVSWYQQLPGTAPKLLIYGHTNRPAGVPDRFSGSKSGTSASLAISGFRSEDEADYYCASWDYTLSGWVFGGGTKLTVLG | – | – | 0.37 | 0.0002 | – | – | fold lower Kd than wt [2]: 2.7 fold; fold lower koff than C6ML3-9 [2]: 3.8 fold |
| C6ML3-15 (scFv, also called C6M13-15) scFv: QVQLLQSGAELKKPGESLKISCKGSGYSFTSYWIAWVRQMPGKGLEYMGLIYPGDSDTKYSPSFQGQVTISVDKSVSTAYLQWSSLKPSDSAVYFCARHDVGYCSSSNCAKWPEYFQHWGQGTLVTVSSGGGGSGGGGSGGGGSQSVLTQPPSVSAAPGQKVTISCSGSSSNIGNNYVSWYQQLPGTAPKLLIYGHTNRPAGVPDRFSGSKSGTSASLAISGFRSEDEADYYCAAWDRPLWGWVFGGGTKLTVLG | 2.2 | – | – | – | 2.2 | – | – |
| C6ML3-29 (scFv) scFv: QVQLLQSGAELKKPGESLKISCKGSGYSFTSYWIAWVRQMPGKGLEYMGLIYPGDSDTKYSPSFQGQVTISVDKSVSTAYLQWSSLKPSDSAVYFCARHDVGYCSSSNCAKWPEYFQHWGQGTLVTVSSGGGGSGGGGSGGGGSQSVLTQPPSVSAAPGQKVTISCSGSSSNIGNNYVSWYQQLPGTAPKLLIYGHTNRPAGVPDRFSGSKSGTSASLAISGFRSEDEADYYCAAWDGTLWGWVFGGGTKLTVLG | 1.7 | 0.0022 | – | – | 2.7 | 0.0022 | – |
| C6MH3-B47 (scFv, C6ML3-9 sFv, VH CDR3 library B mutant) scFv: QVQLLQSGAELKKPGESLKISCKGSGYSFTSYWIAWVRQMPGKGLEYMGLIYPGDSDTKYSPSFQGQVTISVDKSVSTAYLQWSSLKPSDSAVYFCARHDVGYCTDRSCAKWPEYFQHWGQGTLVTVSSGGGGSGGGGSGGGGSQSVLTQPPSVSAAPGQKVTISCSGSSSNIGNNYVSWYQQLPGTAPKLLIYGHTNRPAGVPDRFSGSKSGTSASLAISGFRSEDEADYYCASWDYTLSGWVFGGGTKLTVLG | – | – | 0.11 | 7.5e-05 | – | – | fold lower Kd than C6ML3-9 [2]: 9 fold; fold lower Kd than C6.5 [2]: 145 fold; fold lower koff than C6ML3-9 [2]: 10 fold; fold lower koff than C6.5 [2]: 84 fold |
| C6ML3-19 (scFv) scFv: QVQLLQSGAELKKPGESLKISCKGSGYSFTSYWIAWVRQMPGKGLEYMGLIYPGDSDTKYSPSFQGQVTISVDKSVSTAYLQWSSLKPSDSAVYFCARHDVGYCSSSNCAKWPEYFQHWGQGTLVTVSSGGGGSGGGGSGGGGSQSVLTQPPSVSAAPGQKVTISCSGSSSNIGNNYVSWYQQLPGTAPKLLIYGHTNRPAGVPDRFSGSKSGTSASLAISGFRSEDEADYYCASWDRPLWGWVFGGGTKLTVLG | 1.5 | 0.001 | – | – | 1.5 | 0.001 | – |
| C6MH3-D2 (scFv, C6ML3-9 sFv, VH CDR3 library D mutant) scFv: QVQLLQSGAELKKPGESLKISCKGSGYSFTSYWIAWVRQMPGKGLEYMGLIYPGDSDTKYSPSFQGQVTISVDKSVSTAYLQWSSLKPSDSAVYFCARHDVGYCSSSNCAKWPEWLGVWGQGTLVTVSSGGGGSGGGGSGGGGSQSVLTQPPSVSAAPGQKVTISCSGSSSNIGNNYVSWYQQLPGTAPKLLIYGHTNRPAGVPDRFSGSKSGTSASLAISGFRSEDEADYYCASWDYTLSGWVFGGGTKLTVLG | – | – | 0.16 | 0.0002 | – | – | fold change of Kd against wt C6ML3-9 [2]: 7 fold |
| C6ML3-14 (scFv) scFv: QVQLLQSGAELKKPGESLKISCKGSGYSFTSYWIAWVRQMPGKGLEYMGLIYPGDSDTKYSPSFQGQVTISVDKSVSTAYLQWSSLKPSDSAVYFCARHDVGYCSSSNCAKWPEYFQHWGQGTLVTVSSGGGGSGGGGSGGGGSQSVLTQPPSVSAAPGQKVTISCSGSSSNIGNNYVSWYQQLPGTAPKLLIYGHTNRPAGVPDRFSGSKSGTSASLAISGFRSEDEADYYCAAWDDPLWGWVFGGGTKLTVLG | 1.1 | 0.00076 | – | – | 1 | 0.00077 | – |
| C6ML3-23 (scFv) scFv: QVQLLQSGAELKKPGESLKISCKGSGYSFTSYWIAWVRQMPGKGLEYMGLIYPGDSDTKYSPSFQGQVTISVDKSVSTAYLQWSSLKPSDSAVYFCARHDVGYCSSSNCAKWPEYFQHWGQGTLVTVSSGGGGSGGGGSGGGGSQSVLTQPPSVSAAPGQKVTISCSGSSSNIGNNYVSWYQQLPGTAPKLLIYGHTNRPAGVPDRFSGSKSGTSASLAISGFRSEDEADYYCASWDHSLWGWVFGGGTKLTVLG | 1.5 | 0.001 | – | – | 1.5 | 0.0017 | – |
| C6MH3-B1 (scFv, C6ML3-9 sFv, VH CDR3 library B mutant; also called CH3-B1) scFv: QVQLLQSGAELKKPGESLKISCKGSGYSFTSYWIAWVRQMPGKGLEYMGLIYPGDSDTKYSPSFQGQVTISVDKSVSTAYLQWSSLKPSDSAVYFCARHDVGYCTDRTCAKWPEYFQHWGQGTLVTVSSGGGGSGGGGSGGGGSQSVLTQPPSVSAAPGQKVTISCSGSSSNIGNNYVSWYQQLPGTAPKLLIYGHTNRPAGVPDRFSGSKSGTSASLAISGFRSEDEADYYCASWDYTLSGWVFGGGTKLTVLG | – | – | 0.16 | 6.7e-05 | – | – | Kd [2]: 0.12 nM; koff [2]: 6e-05 s⁻¹; t1/2 calculated from koff [2]: 2.25 h |
| C6ML3-12 (scFv, also called CML-3-12) scFv: QVQLLQSGAELKKPGESLKISCKGSGYSFTSYWIAWVRQMPGKGLEYMGLIYPGDSDTKYSPSFQGQVTISVDKSVSTAYLQWSSLKPSDSAVYFCARHDVGYCSSSNCAKWPEYFQHWGQGTLVTVSSGGGGSGGGGSGGGGSQSVLTQPPSVSAAPGQKVTISCSGSSSNIGNNYVSWYQQLPGTAPKLLIYGHTNRPAGVPDRFSGSKSGTSASLAISGFRSEDEADYYCAAWDYSRSGWVFGGGTKLTVLG | 1.6 | 0.00072 | – | – | 1.6 | 0.00072 | – |
| C6H1L1 (scFv) QVQLVESGAEVKKPRESLKISCKGSGYSFTSYEIAWVRQMPGKGLEYMGLIYPGDSDTKYSPSFQGQVTISVDKSVSTAYLQWSSLKPSDTAMYYCARHDVGYCSSSNCAKWPEYFQHWGQGTLVTVSSGGGGSGGGGSGGGGSQSVLTQPPSVSGAPGQWVTISCSGSSSNIGNNYVSWYQQLPGTAPKLLIYDNNKRPSGVPDRFSGSQSGTSASLAISGLRSEDEADYYCAAWDDSLSGWVFGGGTKLTVLG | – | – | – | – | – | – | Kd [5]: 15 nM |
| C6H2L1 (scFv) scFv: QVQLVQSGAEVKKPRESLKISCKGSGYSFTSYWIAWVRQMPGKGLEYMGLIYPADSKTIYSPSFQGQVTISVDKSVSTAYLQWSSLKTSDTAMYYCARHDVGYCSSSNCAKWPEYFQHWGQGTLVTVSSGGGGSGGGGSGGGGSQSVLTQPPSVSGAPGQWVTISCSGSSSNIGNNYVSWYQQLPGTAPKLLIYDNNKRPSGVPDRFSGSQSGTSASLAISGLRSEDEADYYCAAWDDSLSGWVFGGGTKLTVLG | – | – | – | – | – | – | Kd [5]: 6 nM |
